Source: patent US20210324080A1 (JIANGSU HUAIYU PHARMACEUTICAL, published 2021)

Key:
[1] = target: T1, monkey CTLA-4, full length, on transfected HEK293 cells (monkey); assay: FACS, 293F-cCTLA-4 cells
T1 construct: whole, on cells; also called cCTLA-4; HEK293-cCTLA-4
From the text: The pIRES plasmid with the monkey-derived CTLA-4 full-length gene was transfected into the HEK293 cell line to construct a HEK293 stable cell line containing monkey CTLA-4 (herein referred to as HEK293-cCTLA-4 stable cell line), wherein the database accession number of the monkey CTLA-4 nucleotide sequence is XM_005574014.1. The HEK293-hCTLA-4 stable cell line and HEK293-cCTLA-4 stable cell line were expanded in a T-75 cell culture flask to a 90% confluence. The medium was aspirated, and the cells were washed with HBSS buffer (Hanks Balanced Salt Solution, purchased from Invitrogen) twice, then treated with an enzyme-free cell dissociation fluid (Versene solution, purchased from Life technology) and the cells were collected. The cells were washed with HBSS buffer twice. After counted, the cells were diluted with HBSS buffer to 2×10⁶ cells per ml, added with 1% goat serum blocking solution, wherein the percentage was the mass percantage. Cells were incubated on ice for 30 minutes, then washed twice with HBSS buffer by centrifugation. The collected cells were suspended in the FACS buffer (HBSS containing 1% BSA, wherein the percentage was the mass percantage) to 2×10⁶ cells/ml, added as 100 microliters per well to a 96-well FACS reaction plate, added with 100 microliters per well of the purified CTLA-4 antibody sample to be tested, incubated on ice for 2 hours. The plate was washed twice with the FACS buffer by centrifugation, added with 100 microliters of fluorescent (Alexa 488)-labeled secondary antibodies (purchased from Invitrogen) per well, and incubated on ice for 1 hour. The plate was washed 3 times with FACS buffer by centrifugation, added with 100 μl fixative solution [4% (v/v) Paraformaldehyde] per well to suspend the cells. 10 minutes later, it was washed 2 times with FACS buffer by centrifugation. The cells were suspended with 100 microliters of FACS buffer, FACS (FACS Calibur, purchased from BD) was used for detection and the results were analyzed.

[2] = target: T2, human CTLA-4 (Y201V), full length, on transfected cells (human, UniProt P16410 36-223); assay: FACS, CHOK1-hCTLA-4 cells
T2 construct: whole, on cells; also called hCTLA-4; HEK293-hCTLA-4 (Y201V)
T2 sequence (looked up): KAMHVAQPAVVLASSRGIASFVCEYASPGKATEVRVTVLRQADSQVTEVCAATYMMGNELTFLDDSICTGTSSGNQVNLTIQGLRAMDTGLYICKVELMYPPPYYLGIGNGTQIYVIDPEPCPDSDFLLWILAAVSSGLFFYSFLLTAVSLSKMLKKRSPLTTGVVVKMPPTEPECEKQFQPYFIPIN

[3] = target: T3, CTLA-4-hFc (immunogen A; hFc-labeled CTLA-4 extracellular domain protein) (human, UniProt P16410 36-161); assay: ELISA, coated CTLA-4-hFc, competitor biotin-B7.1-hFc
T3 construct: range 36-161; Made in HEK293 cells, purified on protein A; also called CLTA-4-hFc; CTLA-4 protein; not shown: human IgG Fc fragment (hFc) of the pCpC vector
T3 sequence (looked up): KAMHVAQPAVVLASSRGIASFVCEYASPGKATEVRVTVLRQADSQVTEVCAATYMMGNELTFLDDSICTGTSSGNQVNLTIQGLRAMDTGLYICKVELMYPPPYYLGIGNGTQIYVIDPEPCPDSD
Procedure: (§1) CTLA-4 extracellular domain protein (CTLA-4-hFc) was diluted with PBS to a final concentration of 1.0 μg/mL, and then added to a 96-well ELISA plate as 100 μl per well. The plate was covered with a plastic film and incubated overnight at 4° C. The plate was washed twice with plate washing solution [PBS containing 0.01% (v/v) Tween 20] on the next day, and added with blocking solution [PBS containing 0.01% (v/v) Tween 20 and 1% (w/w) BSA] and blocked at room temperature for 2 hours. […] After 2 hours, the plate was washed 3 times with a plate washing solution [PBS containing 0.01% (v/v) Tween 20]. HRP (horseradish peroxidase) labeled avidin diluent (purchased from Sigma) was added 100 microliters per well, and after the plate was incubated for 2 hours at 37° C., it was washed with plate washing solution [PBS containing 0.01% (v/v) Tween 20] for 3 times. […] TMB substrate was added to each well. After incubated at room temperature for 30 minutes, the plate was added with […] stop solution (1.0N HCl) to each well. An ELISA plate reader (SpectraMax 384plus, Molecular Device) was used to read the A450 nm value.

[4] = target: T3, CTLA-4-hFc (immunogen A; hFc-labeled …); assay: ELISA, coated CTLA-4-hFc, competitor biotin-B7.2-hFc
Procedure: as §1

[5] = target: T3, CTLA-4-hFc (immunogen A; hFc-labeled …); assay: competition ELISA: CTLA-4-hFc coated, antibody titrated, blocked ligand biotin-labeled B7.1-hFc, HRP-avidin, A450, inhibition (%)
Procedure: as §1

[6] = target: T3, CTLA-4-hFc (immunogen A; hFc-labeled …); assay: competition ELISA: CTLA-4-hFc coated, antibody titrated, blocked ligand biotin-labeled B7.2-hFc, HRP-avidin, A450, inhibition (%)
Procedure: as §1

B1: 31C12F3 (chimeric antibody purified from hybridoma supernatant) (antibody, V domains shown)
VH: QVQLVESGGGVVQPGRSLILSCAASGFTFSSYGMHWVRQAPGKGLEWVAVVWYDGSNKYYADSVKGRFTISRDNSKNTLYLQMSSLRAEDTAVYYCARGGIVVPGLFEYWGQGSLVTVSS
VL: DIQMTQSPSSLSASVGDRVAITCRTSQSISNLLNWYQQKPGKAPELLIYAPSSFQSGVPSRFRGSGSGTDFTLTISSLQPEDFATYYCQQSYSTPFTFGPGTKVDIK
notes: also called mAb010
In the case of B1, the “MFI at 0.000128 nM” value [1] is reported as 2.4, the “MFI at 0.0128 nM” value [1] is reported as 34.3 and the “MFI at 0.064 nM” value [1] is reported as 97.7. The “MFI at 0.32 nM” value [1] was 261, the “MFI at 1.6 nM” value [1] was 455 and the “MFI at 8 nM” value [1] was 654. For the same binder, the “MFI at 40 nM” value [1] was 712, the “MFI at 200 nM” value [1] was 668 and the “MFI at 0.07 nM” value [2] was 27.6. For the same binder, the “MFI at 0.67 nM” value [2] was 95, the “MFI at 6.67 nM” value [2] was 386 and the “MFI at 66.67 nM” value [2] was 469. The “Inhibition rate (%) at 0.00091 nM” value [3] was 0%, the “Inhibition rate (%) at 0.091 nM” value [3] was 1.7% and the “Inhibition rate (%) at 0.274 nM” value [3] was 25.7%. The “Inhibition rate (%) at 0.823 nM” value [3] was 72.2%, the “Inhibition rate (%) at 2.5 nM” value [3] was 87.7% and the “Inhibition rate (%) at 7.4 nM” value [3] was 89.6%. The “Inhibition rate (%) at 22.2 nM” value [3] was 93.6%, the “Inhibition rate (%) at 66.7 nM” value [3] was 94.4% and the “Inhibition rate (%) at 0.00091 nM” value [4] was 0%. For the same binder, the “Inhibition rate (%) at 0.091 nM” value [4] was -8.8%, the “Inhibition rate (%) at 0.274 nM” value [4] was 17.1% and the “Inhibition rate (%) at 0.823 nM” value [4] was 60.2%. For the same binder, the “Inhibition rate (%) at 2.5 nM” value [4] was 83.6%, the “Inhibition rate (%) at 7.4 nM” value [4] was 89.9% and the “Inhibition rate (%) at 22.2 nM” value [4] was 92.1%. For the same binder, the “Inhibition rate (%) at 66.7 nM” value [4] was 92.8%, the “IC50 (read off the curve)” value [5] was about 400 pM and the “IC50 (read off the curve)” value [6] was about 500 pM.
